Target: feline FcRn complex (FcRn-α subunit and β-microglobulin), biotin labeled (feline)
Assay: SPR, pH 6

Binder | Kd [nM]
feline IgG1a S252I (antibody, part only; not given: Variable domains, not shown: another chain or arm of the molecule) constant: ASTTAPSVFPLAPSCGTTSGATVALACLVLGYFPEPVTVSWNSGALTSGVHTFPAVLQASGLYSLSSMVTVPSSRWLSDTFTCNVAHPPSNTKVDKTVRKTDHPPGPKPCDCPKCPPPEMLGGPSIFIFPPKPKDTLIISRTPEVTCLVVDLGPDDSDVQITWFVDNTQVYTAKTSPREEQFNSTYRVVSVLPILHQDWLKGKEFKCKVNSKSLPSPIERTISKAKGQPHEPQVYVLPPAQEELSRNKVSVTCLIKSFHPPDIAVEWEITGQPEPENNYRTTPPQLDSDGTYFVYSKLSVDRSHWQRGNTYTCSVSHEALHSHHTQKSLTQSPGK | 156
feline IgG1a S252C (antibody, part only; not given: Variable domains, not shown: another chain or arm of the molecule; small tags and cut ends) constant: ASTTAPSVFPLAPSCGTTSGATVALACLVLGYFPEPVTVSWNSGALTSGVHTFPAVLQASGLYSLSSMVTVPSSRWLSDTFTCNVAHPPSNTKVDKTVRKTDHPPGPKPCDCPKCPPPEMLGGPSIFIFPPKPKDTLCISRTPEVTCLVVDLGPDDSDVQITWFVDNTQVYTAKTSPREEQFNSTYRVVSVLPILHQDWLKGKEFKCKVNSKSLPSPIERTISKAKGQPHEPQVYVLPPAQEELSRNKVSVTCLIKSFHPPDIAVEWEITGQPEPENNYRTTPPQLDSDGTYFVYSKLSVDRSHWQRGNTYTCSVSHEALHSHHTQKSLTQSPGK | 922
feline IgG1a S252E (antibody, part only; not given: variable domains, not shown: another chain or arm of the molecule) constant: ASTTAPSVFPLAPSCGTTSGATVALACLVLGYFPEPVTVSWNSGALTSGVHTFPAVLQASGLYSLSSMVTVPSSRWLSDTFTCNVAHPPSNTKVDKTVRKTDHPPGPKPCDCPKCPPPEMLGGPSIFIFPPKPKDTLEISRTPEVTCLVVDLGPDDSDVQITWFVDNTQVYTAKTSPREEQFNSTYRVVSVLPILHQDWLKGKEFKCKVNSKSLPSPIERTISKAKGQPHEPQVYVLPPAQEELSRNKVSVTCLIKSFHPPDIAVEWEITGQPEPENNYRTTPPQLDSDGTYFVYSKLSVDRSHWQRGNTYTCSVSHEALHSHHTQKSLTQSPGK | 163
feline IgG1a S252V (antibody, part only; not given: Variable domains, not shown: another chain or arm of the molecule) constant: ASTTAPSVFPLAPSCGTTSGATVALACLVLGYFPEPVTVSWNSGALTSGVHTFPAVLQASGLYSLSSMVTVPSSRWLSDTFTCNVAHPPSNTKVDKTVRKTDHPPGPKPCDCPKCPPPEMLGGPSIFIFPPKPKDTLVISRTPEVTCLVVDLGPDDSDVQITWFVDNTQVYTAKTSPREEQFNSTYRVVSVLPILHQDWLKGKEFKCKVNSKSLPSPIERTISKAKGQPHEPQVYVLPPAQEELSRNKVSVTCLIKSFHPPDIAVEWEITGQPEPENNYRTTPPQLDSDGTYFVYSKLSVDRSHWQRGNTYTCSVSHEALHSHHTQKSLTQSPGK | 4470
feline IgG1a S252P (antibody, part only; not given: Variable domains, not shown: another chain or arm of the molecule) constant: ASTTAPSVFPLAPSCGTTSGATVALACLVLGYFPEPVTVSWNSGALTSGVHTFPAVLQASGLYSLSSMVTVPSSRWLSDTFTCNVAHPPSNTKVDKTVRKTDHPPGPKPCDCPKCPPPEMLGGPSIFIFPPKPKDTLPISRTPEVTCLVVDLGPDDSDVQITWFVDNTQVYTAKTSPREEQFNSTYRVVSVLPILHQDWLKGKEFKCKVNSKSLPSPIERTISKAKGQPHEPQVYVLPPAQEELSRNKVSVTCLIKSFHPPDIAVEWEITGQPEPENNYRTTPPQLDSDGTYFVYSKLSVDRSHWQRGNTYTCSVSHEALHSHHTQKSLTQSPGK | 7030
feline IgG1a S252Q (antibody, part only; not given: Variable domains, not shown: another chain or arm of the molecule) constant: ASTTAPSVFPLAPSCGTTSGATVALACLVLGYFPEPVTVSWNSGALTSGVHTFPAVLQASGLYSLSSMVTVPSSRWLSDTFTCNVAHPPSNTKVDKTVRKTDHPPGPKPCDCPKCPPPEMLGGPSIFIFPPKPKDTLQISRTPEVTCLVVDLGPDDSDVQITWFVDNTQVYTAKTSPREEQFNSTYRVVSVLPILHQDWLKGKEFKCKVNSKSLPSPIERTISKAKGQPHEPQVYVLPPAQEELSRNKVSVTCLIKSFHPPDIAVEWEITGQPEPENNYRTTPPQLDSDGTYFVYSKLSVDRSHWQRGNTYTCSVSHEALHSHHTQKSLTQSPGK | 192
feline IgG1a S252T (antibody, part only; not given: Variable domains, not shown: another chain or arm of the molecule) constant: ASTTAPSVFPLAPSCGTTSGATVALACLVLGYFPEPVTVSWNSGALTSGVHTFPAVLQASGLYSLSSMVTVPSSRWLSDTFTCNVAHPPSNTKVDKTVRKTDHPPGPKPCDCPKCPPPEMLGGPSIFIFPPKPKDTLTISRTPEVTCLVVDLGPDDSDVQITWFVDNTQVYTAKTSPREEQFNSTYRVVSVLPILHQDWLKGKEFKCKVNSKSLPSPIERTISKAKGQPHEPQVYVLPPAQEELSRNKVSVTCLIKSFHPPDIAVEWEITGQPEPENNYRTTPPQLDSDGTYFVYSKLSVDRSHWQRGNTYTCSVSHEALHSHHTQKSLTQSPGK | 1190
feline IgG1a S252N (antibody, part only; not given: variable domains, not shown: another chain or arm of the molecule) constant: ASTTAPSVFPLAPSCGTTSGATVALACLVLGYFPEPVTVSWNSGALTSGVHTFPAVLQASGLYSLSSMVTVPSSRWLSDTFTCNVAHPPSNTKVDKTVRKTDHPPGPKPCDCPKCPPPEMLGGPSIFIFPPKPKDTLNISRTPEVTCLVVDLGPDDSDVQITWFVDNTQVYTAKTSPREEQFNSTYRVVSVLPILHQDWLKGKEFKCKVNSKSLPSPIERTISKAKGQPHEPQVYVLPPAQEELSRNKVSVTCLIKSFHPPDIAVEWEITGQPEPENNYRTTPPQLDSDGTYFVYSKLSVDRSHWQRGNTYTCSVSHEALHSHHTQKSLTQSPGK | 400

Binders with a lower Kd, results first:

Kd [nM] | Binder
91 | feline IgG1a A378W (antibody, part only; not given: Variable domains, not shown: another chain or arm of the molecule; small tags and cut ends) constant: ASTTAPSVFPLAPSCGTTSGATVALACLVLGYFPEPVTVSWNSGALTSGVHTFPAVLQASGLYSLSSMVTVPSSRWLSDTFTCNVAHPPSNTKVDKTVRKTDHPPGPKPCDCPKCPPPEMLGGPSIFIFPPKPKDTLSISRTPEVTCLVVDLGPDDSDVQITWFVDNTQVYTAKTSPREEQFNSTYRVVSVLPILHQDWLKGKEFKCKVNSKSLPSPIERTISKAKGQPHEPQVYVLPPAQEELSRNKVSVTCLIKSFHPPDIWVEWEITGQPEPENNYRTTPPQLDSDGTYFVYSKLSVDRSHWQRGNTYTCSVSHEALHSHHTQKSLTQSPGK
69.6 | feline IgG1a A378Y (antibody, part only; not given: Variable domains, not shown: another chain or arm of the molecule; small tags and cut ends) constant: ASTTAPSVFPLAPSCGTTSGATVALACLVLGYFPEPVTVSWNSGALTSGVHTFPAVLQASGLYSLSSMVTVPSSRWLSDTFTCNVAHPPSNTKVDKTVRKTDHPPGPKPCDCPKCPPPEMLGGPSIFIFPPKPKDTLSISRTPEVTCLVVDLGPDDSDVQITWFVDNTQVYTAKTSPREEQFNSTYRVVSVLPILHQDWLKGKEFKCKVNSKSLPSPIERTISKAKGQPHEPQVYVLPPAQEELSRNKVSVTCLIKSFHPPDIYVEWEITGQPEPENNYRTTPPQLDSDGTYFVYSKLSVDRSHWQRGNTYTCSVSHEALHSHHTQKSLTQSPGK
93.5 | feline IgG1a S252D (antibody, part only; not given: Variable domains, not shown: another chain or arm of the molecule; small tags and cut ends) constant: ASTTAPSVFPLAPSCGTTSGATVALACLVLGYFPEPVTVSWNSGALTSGVHTFPAVLQASGLYSLSSMVTVPSSRWLSDTFTCNVAHPPSNTKVDKTVRKTDHPPGPKPCDCPKCPPPEMLGGPSIFIFPPKPKDTLDISRTPEVTCLVVDLGPDDSDVQITWFVDNTQVYTAKTSPREEQFNSTYRVVSVLPILHQDWLKGKEFKCKVNSKSLPSPIERTISKAKGQPHEPQVYVLPPAQEELSRNKVSVTCLIKSFHPPDIAVEWEITGQPEPENNYRTTPPQLDSDGTYFVYSKLSVDRSHWQRGNTYTCSVSHEALHSHHTQKSLTQSPGK
27.1 | feline IgG1a S252A (antibody, part only; not given: Variable domains, not shown: another chain or arm of the molecule; small tags and cut ends) constant: ASTTAPSVFPLAPSCGTTSGATVALACLVLGYFPEPVTVSWNSGALTSGVHTFPAVLQASGLYSLSSMVTVPSSRWLSDTFTCNVAHPPSNTKVDKTVRKTDHPPGPKPCDCPKCPPPEMLGGPSIFIFPPKPKDTLAISRTPEVTCLVVDLGPDDSDVQITWFVDNTQVYTAKTSPREEQFNSTYRVVSVLPILHQDWLKGKEFKCKVNSKSLPSPIERTISKAKGQPHEPQVYVLPPAQEELSRNKVSVTCLIKSFHPPDIAVEWEITGQPEPENNYRTTPPQLDSDGTYFVYSKLSVDRSHWQRGNTYTCSVSHEALHSHHTQKSLTQSPGK
49.8 | feline IgG1a S252G (antibody, part only; not given: Variable domains, not shown: another chain or arm of the molecule) constant: ASTTAPSVFPLAPSCGTTSGATVALACLVLGYFPEPVTVSWNSGALTSGVHTFPAVLQASGLYSLSSMVTVPSSRWLSDTFTCNVAHPPSNTKVDKTVRKTDHPPGPKPCDCPKCPPPEMLGGPSIFIFPPKPKDTLGISRTPEVTCLVVDLGPDDSDVQITWFVDNTQVYTAKTSPREEQFNSTYRVVSVLPILHQDWLKGKEFKCKVNSKSLPSPIERTISKAKGQPHEPQVYVLPPAQEELSRNKVSVTCLIKSFHPPDIAVEWEITGQPEPENNYRTTPPQLDSDGTYFVYSKLSVDRSHWQRGNTYTCSVSHEALHSHHTQKSLTQSPGK
53.7 | feline IgG1a S252K (antibody, part only; not given: variable domains and light chain, not shown: another chain or arm of the molecule) constant: ASTTAPSVFPLAPSCGTTSGATVALACLVLGYFPEPVTVSWNSGALTSGVHTFPAVLQASGLYSLSSMVTVPSSRWLSDTFTCNVAHPPSNTKVDKTVRKTDHPPGPKPCDCPKCPPPEMLGGPSIFIFPPKPKDTLKISRTPEVTCLVVDLGPDDSDVQITWFVDNTQVYTAKTSPREEQFNSTYRVVSVLPILHQDWLKGKEFKCKVNSKSLPSPIERTISKAKGQPHEPQVYVLPPAQEELSRNKVSVTCLIKSFHPPDIAVEWEITGQPEPENNYRTTPPQLDSDGTYFVYSKLSVDRSHWQRGNTYTCSVSHEALHSHHTQKSLTQSPGK
1.02 | feline IgG1a S434H (antibody, part only; not given: variable domains and light chain, not shown: another chain or arm of the molecule; small tags and cut ends) constant: ASTTAPSVFPLAPSCGTTSGATVALACLVLGYFPEPVTVSWNSGALTSGVHTFPAVLQASGLYSLSSMVTVPSSRWLSDTFTCNVAHPPSNTKVDKTVRKTDHPPGPKPCDCPKCPPPEMLGGPSIFIFPPKPKDTLSISRTPEVTCLVVDLGPDDSDVQITWFVDNTQVYTAKTSPREEQFNSTYRVVSVLPILHQDWLKGKEFKCKVNSKSLPSPIERTISKAKGQPHEPQVYVLPPAQEELSRNKVSVTCLIKSFHPPDIAVEWEITGQPEPENNYRTTPPQLDSDGTYFVYSKLSVDRSHWQRGNTYTCSVSHEALHHHHTQKSLTQSPGK
70.7 | feline IgG1a S252L (antibody, part only; not given: Variable domains, not shown: another chain or arm of the molecule) constant: ASTTAPSVFPLAPSCGTTSGATVALACLVLGYFPEPVTVSWNSGALTSGVHTFPAVLQASGLYSLSSMVTVPSSRWLSDTFTCNVAHPPSNTKVDKTVRKTDHPPGPKPCDCPKCPPPEMLGGPSIFIFPPKPKDTLLISRTPEVTCLVVDLGPDDSDVQITWFVDNTQVYTAKTSPREEQFNSTYRVVSVLPILHQDWLKGKEFKCKVNSKSLPSPIERTISKAKGQPHEPQVYVLPPAQEELSRNKVSVTCLIKSFHPPDIAVEWEITGQPEPENNYRTTPPQLDSDGTYFVYSKLSVDRSHWQRGNTYTCSVSHEALHSHHTQKSLTQSPGK

— patent US20240400708A1
